This is an account of results in PMC8249414, “Structural basis of ALC1/CHD1L autoinhibition and the mechanism of activation by the nucleosome” (Nature Communications, 2021).

Assay [1] deals with histone H4 (in the nucleosome) (UniProt P62799 2-103). Kind of assay: cryo-EM structure; R857Q of ALC1 (30 μM) mixed with 167NCP (6 μM), ADP-BeFx, GraFix; single-binding map 2.8 Å; a class with two copies of ALC1 on the nucleosome 3.3 Å. The settings on record: both partners purified.
The target of assay [2] is T1, human ALC1 (residues 1-880) (human, UniProt Q86WJ1).
T1 construct: ALC1 (CHD1L), human, residues 1-880 cloned from cDNA; the crystallised construct holds the motor domain, the linker region and the macro domain; also called CHD1L; WT; source: E. coli Rosetta (DE3), purified (Ni-NTA, Source-15S, Superdex-200)
Kind of assay: crystal structure; ALC1-scFv complex (mixed 1:1.1, purified on Superdex 200), crystallised in the presence of ADP-Mg; 3.5 Å. As to conditions: both partners purified.

B1: ALC1 R857Q mutant (enzyme)
chain: MERAGATSRGGQAPGFLLRLHTEGRAEAARVQEQDLRQWGLTGIHLRSYQLEGVNWLAQRFHCQNGCILGDEMGLGKTCQTIALFIYLAGRLNDEGPFLILCPLSVLSNWKEEMQRFAPGLSCVTYAGDKEERACLQQDLKQESRFHVLLTTYEICLKDASFLKSFPWSVLVVDEAHRLKNQSSLLHKTLSEFSVVFSLLLTGTPIQNSLQELYSLLSFVEPDLFSKEEVGDFIQRYQDIEKESESASELHKLLQPFLLRRVKAEVATELPKKTEVVIYHGMSALQKKYYKAILMKDLDAFENETAKKVKLQNILSQLRKCVDHPYLFDGVEPEPFEVGDHLTEASGKLHLLDKLLAFLYSGGHRVLLFSQMTQMLDILQDYMDYRGYSYERVDGSVRGEERHLAIKNFGQQPIFVFLLSTRAGGVGMNLTAADTVIFVDSDFNPQNDLQAAARAHRIGQNKSVKVIRLIGRDTVEEIVYRKAASKLQLTNMIIEGGHFTLGAQKPAADADLQLSEILKFGLDKLLASEGSTMDEIDLESILGETKDGQWVSDALPAAEGGSRDQEEGKNHMYLFEGKDYSKEPSKEDRKSFEQLVNLQKTLLEKASQEGRSLRNKGSVLIPGLVEGSTKRKRVLSPEELEDRQKKRQEAAAKRRRLIEEKKRQKEEAEHKKKMAWWESNNYQSFCLPSEESEPEDLENGEESSAELDYQDPDATSLKYVSGDVTHPQAGAEDALIVHCVDDSGHWGRGGLFTALEKRSAEPRKIYELAGKMKDLSLGGVLLFPVDDKESRNKGQDLLALIVAQHRDRSNVLSGIKMAALEEGLKKIFLAAKKKKASVHLPRIGHATKGFNWYGTEQLIRKHLAARGIPTYIYYFPRSKS
notes: ALC1 (CHD1L), human, residues 1-880 with R857Q; the mutant was made by mutagenesis; also called R857Q of ALC1; source: E. coli Rosetta (DE3), purified (Ni-NTA, Source-15S, Superdex-200)
B1: the binding result in assay [1] is given as “binds”.

B2: single-chain antibody (scFv) against ALC1 used for crystallization (scFv, V domains shown)
VH: QVQLQQSGPGLVRPSQTLSLTCAISGDSVSDNDAAWNWVRQSPSRGLEWLGRTYYRSKWSNEYAVFVQSRITINPDTSKNQFSLHLNSVTPEDTAVYYCARATRPTGNGLDIWGQGTMVTVSS
VL: SYVLTQPPSVSVAPGQTARITCGGNNIGSKSVHWYQQKPGQAPVLVVYDDSDRPSGIPERFSGSNSGNTAALTISRVEAGDEADYYCQVWDSSSDHVVFGGGTKLTVL
notes: human scFv from a non-immunized yeast-display library; One of seven clones; also called the antibody; source: HEK293F, transfected, secreted, purified (Ni-NTA, Superdex 75)
As for B2, the binding result in assay [2] is “binds”.
